Paper PMC3584105, “Acute BDNF Treatment Upregulates GluR1-SAP97 and GluR2-GRIP1 Interactions: Implications for Sustained AMPA Receptor Expression” (PLoS ONE, 2013)

Target: T1, GluR2 (wild type, full length, expressed in HEKTrkB cells) (UniProt P19491 22-883)
T1 construct: AMPA receptor subunit GluR2, wild type cDNA in a CMV expression vector; the deletion mutants of the same cDNA end at residue 862; also called WT GluR2; full length GluR2; source: HEKTrkB cells, transiently co-transfected (cDNA downstream from the CMV promoter), in lysate
Test: co-IP; lysate of HEKTrkB cells co-transfected with GluR2 and GRIP1, treated with BDNF (1 h, 50 ng/mL) or not; precipitation with anti-N-terminal GluR2 and blot with anti-GRIP1, or precipitation with anti-GRIP1 and blot with anti-C-terminal GluR2/3
Conditions: partners not purified

T1 sequence (P19491 22-883): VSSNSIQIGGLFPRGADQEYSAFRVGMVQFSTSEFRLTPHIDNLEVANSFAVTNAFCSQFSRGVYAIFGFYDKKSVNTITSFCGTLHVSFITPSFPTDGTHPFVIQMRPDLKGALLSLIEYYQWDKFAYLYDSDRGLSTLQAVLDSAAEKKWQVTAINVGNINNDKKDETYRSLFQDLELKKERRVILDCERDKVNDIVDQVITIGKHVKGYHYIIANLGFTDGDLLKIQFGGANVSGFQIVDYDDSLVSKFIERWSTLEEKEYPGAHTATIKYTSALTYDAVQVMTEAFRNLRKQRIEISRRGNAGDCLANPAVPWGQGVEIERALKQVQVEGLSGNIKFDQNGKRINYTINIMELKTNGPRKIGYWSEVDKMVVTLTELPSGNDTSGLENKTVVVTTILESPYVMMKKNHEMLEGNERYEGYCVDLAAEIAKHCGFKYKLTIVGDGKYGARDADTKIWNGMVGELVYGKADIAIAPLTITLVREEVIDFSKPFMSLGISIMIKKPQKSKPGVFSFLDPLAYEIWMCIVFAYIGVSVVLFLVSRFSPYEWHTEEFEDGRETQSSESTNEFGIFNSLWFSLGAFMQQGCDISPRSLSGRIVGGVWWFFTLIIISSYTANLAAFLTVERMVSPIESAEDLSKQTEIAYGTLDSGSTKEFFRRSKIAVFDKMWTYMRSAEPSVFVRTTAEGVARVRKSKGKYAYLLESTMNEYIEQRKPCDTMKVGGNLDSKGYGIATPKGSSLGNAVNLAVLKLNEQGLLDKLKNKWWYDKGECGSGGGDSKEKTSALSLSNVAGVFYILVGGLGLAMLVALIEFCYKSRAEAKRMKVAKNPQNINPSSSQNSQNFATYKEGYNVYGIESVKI

- fold change of the co-precipitate, 1 h BDNF against untreated cells: ~6 fold
B1: GRIP1 (expressed in HEKTrkB cells) (natural protein, UniProt P97879 1-1112, looked up)
chain: MIAVSFKCRCQILRRLTKDESPYTKSASQTKPPDGALAVRRQSIPEEFKGSTVVELMKKEGTTLGLTVSGGIDKDGKPRVSNLRQGGIAARSDQLDVGDYIKAVNGINLAKFRHDEIISLLKNVGERVVLEVEYELPPVSIQGSSVMFRTVEVTLHKEGNTFGFVIRGGAHDDRNKSRPVVITCVRPGGPADREGTIKPGDRLLSVDGIRLLGTTHAEAMSILKQCGQEATLLIEYDVSVMDSVATASGPLLVEVAKTPGASLGVALTTSVCCNKQVIVIDKIKSASIADRCGALHVGDHILSIDGTSMEYCTLAEATQFLANTTDQVKLEILPHHQTRLALKGPDHVKIQRSDRQLPWDPWASSQCSVHTNHHHNPHHPDHCRVPALGFPKALTPNSPPAMVSSSSPTSMSAYSLSSLNMGTLPRSLYSTSPRGTMMRRRLKKKDFKSSLSLASSTVGLAGQVVHTETTEVVLTADPVTGFGIQLQGSVFATETLSSPPLISYIEADSPAERCGVLQIGDRVMAINGIPTEDSTFEEANQLLRDSSITSKVTLEIEFDVAESVIPSSGTFHVKLPKKHSVELGITISSPSSRKPGDPLVISDIKKGSVAHRTGTLELGDKLLAIDNIRLDSCSMEDAVQILQQCEDLVKLKIRKDEDNSDEQESSGAIIYTVELKRYGGPLGITISGTEEPFDPIIISSLTKGGLAERTGAIHIGDRILAINSSSLKGKPLSEAIHLLQMAGETVTLKIKKQTDAQPASSPKKLPIPSHSSDLGDGEEDPSPIQRPGKLSDVYPSTVPSVDSAVDSWDGSGIDARYGSQGTTFQTSGYNFNTYDWRSPKKRASLSPVPKPRSQTYPDVGLSNEDWDRSTASGFAGASDSADAEQEENFWSQALEDLETCGQSGILRELEATIMSGSTMSLNHEAPTARSQLGRQASFQERSNSRPHYSQTTRSNTLPSDVGRKSVTLRKMKQEIKEIMSPTPVELHKVTLYKDSGMEDFGFSVADGLLEKGVYVKNIRPAGPGDLGGLKPYDRLLQVNHVRTRDFDCCLVVPLIAESGNKLDLVISRNPLASQKSIEQPALPSDWSEQNSAFFQQPSHGGNLETREPTNTL
notes: source: HEKTrkB cells, transiently co-transfected (cDNA downstream from the CMV promoter), in lysate
